Drawing on publication PMC12708450, this text covers Kd for one sequence.

The target in this data set is PD-L1 (recombinant human) (Homo sapiens) (UniProt Q9NZQ7). The data set is described as follows: ELONA. The settings on record: 1:1 hyperbolic fit; internal C3 spacer (iSpC3) between DNA nt 63 and RNA nt 1 (strand position 64); nt 1-63 DNA, nt 64-82 RNA; strand 2 RNA; ELONA: PD-L1 coated in PBS at 4 C overnight; blocked with PBS, 0.1% Tween 20, 1% BSA; wash PBS, 1 mM MgCl2, 0.1% Tween 20, 0.1% BSA; oligo heated 95 C 10 min ….
Sequence of PD-L1 (recombinant human) (Homo sapiens) (Q9NZQ7 19-238): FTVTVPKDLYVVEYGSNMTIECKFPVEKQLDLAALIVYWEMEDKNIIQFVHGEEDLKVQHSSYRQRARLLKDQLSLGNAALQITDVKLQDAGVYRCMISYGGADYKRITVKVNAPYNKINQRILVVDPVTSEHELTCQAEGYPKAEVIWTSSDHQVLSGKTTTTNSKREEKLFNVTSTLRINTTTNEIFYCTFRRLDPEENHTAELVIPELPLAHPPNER

As to “ACCGACCGTGCTGGACTCATCTCGCTTTTTTCACGGTCCACACTACTATGAGCGAGCCTGGCGGGAAUGACCUCUUUCACCA / UGGUGAAAGAGGUCAUUCC [PD-L1 aptamer-CD47 siRNA chimera]”, the Kd – broadly, the equilibrium constant for the complex coming apart – was determined as 174 nM.
